Measurements as given in publication PMC5750471.

B1: TREM2 (triggering receptor expressed on myeloid cells 2) with a Myc-tag at the C terminus, wild type [human] / presenilin 1 (PS1), wild type [not stated] (parent)
chain 1: HNTTVFQGVAGQSLQVSCPYDSMKHWGRRKAWCRQLGEKGPCQRVVSTHNLWLLSFLRRWNGSTAITDDTLGGTLTITLRNLQPHDAGLYQCQSLHGSEADTLRKVLVEVLADPLDHRDAGDLWFPGESESFEDAHVEHSISRSLLEGEIPFPPTSILLLLACIFLIKILAASALWAAAWHGQKPGTHPPSELDCGHDPGYQLQTLPGLRDT
chain 2: not shown

Variants of: B1
Test: co-immunoprecipitation with PS1 antibody Ab14, immunoblot band quantification
Conditions: with presenilin 1 (PS1), HEK293 cells stably expressing Myc-tagged TREM2, transfected with PS1, n=3, read off a plot

chain 1 T78K and chain 1 R29H are the same in ratio to parent (arbitrary unit): 1.2 for the first, 1.2 for the second.

Work on chain 1 T48M yielded a ratio to parent (arbitrary unit) of 0.68.
